Biological target: T1, CFP-10 carrying an N-terminal HIS tag, produced by BCG::2F9-HIS-EsxB (Mycobacterium tuberculosis, UniProt P9WNK5 2-100)
T1 sequence: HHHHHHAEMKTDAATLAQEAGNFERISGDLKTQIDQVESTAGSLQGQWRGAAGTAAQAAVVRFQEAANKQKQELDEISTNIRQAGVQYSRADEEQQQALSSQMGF
Experiment: Ni-NTA co-purification, Coomassie gel and western blot

B1: 6 kDa early secreted antigenic target (ESAT-6), native, encoded by esxA (other)
chain: TEQQWNFAGIEAAASAIQGNVTSIHSLLDEGKQSLTKLAAAWGGSGSEAYQGVQQKWDATATELNNALQNLARTISEAGQAMASTEGNVTGMFA
B1: binds.

Source: patent US20070009547A1 (INSTITUT PASTEUR, published 2007)
